# ± gives the uncertainty stated by the source.
# B1: Chromodomain-helicase-DNA-binding protein 4, residues 623 to 675; numbered along this chain, Q14839 (parent)
# chain: MIHRILNHSVDKKGHVHYLIKWRDLPYDQASWESEDVEIQDYDLFKQSYWNHR
# Variants of: B1
# Assay: abundance fitness (aPCA) (normalised: wild type 0, dead -1); higher = more abundant; growth selection in yeast, the domain comes from the species named
# Details: Homo sapiens
row,Variant,abundance fitness
1,S31W,-0.767 ± 0.2
2,S31D,-0.854 ± 0.16
3,S31Q,-0.646 ± 0.14
4,S31T,0.067 ± 0.09
5,S31I,-0.702 ± 0.13
6,S31H,-0.916 ± 0.17
7,S31Y,-0.711 ± 0.13
8,S31V,-0.61 ± 0.11
9,S31G,-0.885 ± 0.14
10,S31R,-0.656 ± 0.097
11,S31M,-1.01 ± 0.17
12,S31N,-0.604 ± 0.14
13,S31E,-0.784 ± 0.16
14,E33L,-0.164 ± 0.084
15,E33R,-0.254 ± 0.095
16,E33N,-0.651 ± 0.21
17,E33A,-0.109 ± 0.11
18,E33C,0.13 ± 0.14
19,E33W,-0.566 ± 0.13
20,E33D,-0.947 ± 0.24
21,E33Y,-0.406 ± 0.15
22,E33H,-0.266 ± 0.16
23,E33P,-0.895 ± 0.16
24,E33I,0.101 ± 0.15

row,Variant,abundance fitness
1,E33G,-0.781 ± 0.17
2,E33K,-0.072 ± 0.13
3,E33V,0.036 ± 0.11
4,E33Q,-0.152 ± 0.11
5,E33F,-0.528 ± 0.13
6,V37W,-0.985 ± 0.21
7,V37I,-0.217 ± 0.089
8,V37Q,0.052 ± 0.14
9,V37T,-0.001 ± 0.083
10,V37R,0.212 ± 0.089
11,V37H,-0.126 ± 0.087
12,V37N,0.155 ± 0.088
13,V37G,-0.246 ± 0.095
14,V37M,0.171 ± 0.11
15,V37D,-0.262 ± 0.1
16,V37K,0.182 ± 0.14
17,V37C,0.117 ± 0.1
18,V37E,-0.039 ± 0.16
19,V37F,-0.166 ± 0.097
20,V37Y,-0.361 ± 0.1
21,V37A,0.109 ± 0.077
22,V37L,-0.058 ± 0.075
23,V37P,-0.746 ± 0.11
24,D43G,-0.147 ± 0.092

row,Variant,abundance fitness
1,D43I,-0.862 ± 0.25
2,D43Y,-0.253 ± 0.15
3,D43S,-0.307 ± 0.088
4,D43Q,-0.047 ± 0.11
5,D43F,-0.394 ± 0.16
6,D43T,-0.367 ± 0.12
7,D43N,-0.161 ± 0.12
8,D43A,-0.205 ± 0.081
9,D43C,-0.236 ± 0.16
10,D43K,-0.456 ± 0.14
11,D43R,-0.577 ± 0.1
12,D43L,-0.423 ± 0.084
13,D43E,0.099 ± 0.1
14,D43M,-0.262 ± 0.13
15,D43W,-0.219 ± 0.13
16,D43H,-0.186 ± 0.13
17,Y42K,-0.767 ± 0.49
18,Y42L,-0.592 ± 0.31
19,F45T,-0.64 ± 0.12
20,F45S,-0.444 ± 0.077
21,F45P,-0.857 ± 0.11
22,F45C,-0.306 ± 0.11
23,F45H,0.119 ± 0.09
24,F45E,-0.735 ± 0.28

row,Variant,abundance fitness
1,F45N,-0.627 ± 0.12
2,F45D,-0.568 ± 0.12
3,F45L,-0.388 ± 0.08
4,F45Q,-0.71 ± 0.16
5,F45K,-0.391 ± 0.15
6,F45A,-0.013 ± 0.085
7,F45G,-0.856 ± 0.12
8,F45M,-0.283 ± 0.13
9,F45V,-0.616 ± 0.1
10,F45R,-0.757 ± 0.099
11,F45I,-0.423 ± 0.085
12,F45W,-0.279 ± 0.13
13,S48R,0.14 ± 0.075
14,S48T,-0.124 ± 0.096
15,S48M,0.016 ± 0.091
16,S48D,0.043 ± 0.12
17,S48A,0.07 ± 0.078
18,S48F,-0.236 ± 0.11
19,S48K,0.043 ± 0.097
20,S48G,-0.206 ± 0.087
21,S48Q,-0.053 ± 0.1
22,S48E,0.067 ± 0.087
23,S48W,-0.412 ± 0.1
24,S48L,-0.01 ± 0.076

row,Variant,abundance fitness
1,S48H,0.119 ± 0.12
2,S48V,-0.011 ± 0.075
3,S48Y,0.093 ± 0.13
4,S48C,-0.083 ± 0.12
5,S48P,-0.628 ± 0.13
6,Q47R,-0.084 ± 0.078
7,Q47D,-0.289 ± 0.11
8,Q47A,-0.114 ± 0.1
9,Q47E,-0.052 ± 0.11
10,Q47H,-0.051 ± 0.14
11,Q47F,-0.318 ± 0.13
12,Q47T,0.022 ± 0.099
13,Q47S,-0.05 ± 0.081
14,Q47W,-0.475 ± 0.11
15,Q47Y,-0.343 ± 0.16
16,Q47P,-0.804 ± 0.16
17,Q47C,-0.423 ± 0.096
18,Q47K,0.239 ± 0.12
19,Q47L,-0.374 ± 0.094
20,Q47I,0.132 ± 0.12
21,Q47M,-0.452 ± 0.14
22,Q47G,-0.483 ± 0.088
23,Q47N,0.087 ± 0.11
24,E35L,-0.833 ± 0.1

row,Variant,abundance fitness
1,E35M,-0.874 ± 0.15
2,E35V,-0.809 ± 0.12
3,E35I,-0.765 ± 0.21
4,E35P,-0.874 ± 0.18
5,E35Q,-0.391 ± 0.12
6,E35Y,-0.757 ± 0.15
7,E35D,-0.332 ± 0.18
8,E35A,-0.141 ± 0.11
9,E35S,-0.131 ± 0.089
10,E35F,-0.934 ± 0.21
11,E35G,-0.22 ± 0.1
12,E35T,-0.45 ± 0.12
13,E35R,-0.882 ± 0.1
14,E35K,-0.844 ± 0.17
15,E35C,-0.717 ± 0.16
16,E35H,-0.769 ± 0.24
17,E35W,-0.684 ± 0.15
18,W50L,-0.811 ± 0.11
19,W50T,-0.733 ± 0.17
20,W50R,-0.725 ± 0.089
21,W50I,-0.813 ± 0.21
22,W50E,-0.879 ± 0.17
23,W50A,-0.808 ± 0.13
24,W50F,-0.861 ± 0.17

row,Variant,abundance fitness
1,W50Y,-0.554 ± 0.25
2,W50K,-0.511 ± 0.17
3,W50Q,-0.959 ± 0.27
4,W50C,-0.793 ± 0.12
5,W50G,-0.813 ± 0.083
6,W50H,-0.779 ± 0.26
7,W50P,-0.824 ± 0.19
8,W50S,-0.653 ± 0.11
9,W50V,-0.783 ± 0.099
10,W50N,-0.766 ± 0.24
11,W50D,-1.23 ± 0.26
12,W32I,-0.71 ± 0.14
13,W32K,-1.01 ± 0.19
14,W32L,-0.732 ± 0.11
15,W32N,-0.776 ± 0.14
16,W32D,-0.812 ± 0.18
17,W32M,-0.827 ± 0.18
18,W32F,-0.93 ± 0.18
19,W32S,-0.933 ± 0.12
20,W32Q,-0.75 ± 0.15
21,W32H,-0.788 ± 0.15
22,W32P,-0.755 ± 0.12
23,W32Y,-0.909 ± 0.17
